Where two headings read alike, the source gives them in different places.
Legend:
Assay in all cases: cell-based or functional assay
[1] = molecular target: SARS-CoV-2 Alpha spike (S) protein (SARS-CoV-2) (UniProt P0DTC2)
[2] = molecular target: SARS-CoV-2 Beta spike (S) protein (SARS-CoV-2) (UniProt P0DTC2)
[3] = molecular target: SARS-CoV-2 Delta spike (S) protein (SARS-CoV-2) (UniProt P0DTC2)
[4] = molecular target: SARS-CoV-2 Gamma spike (S) protein (SARS-CoV-2) (UniProt P0DTC2)
[5] = molecular target: SARS-CoV-2 Omicron BA.1 spike (S) protein of the live isolate (SARS-CoV-2) (UniProt P0DTC2)
[6] = molecular target: SARS-CoV-2 Omicron BA.1.1 spike (S) protein (SARS-CoV-2) (UniProt P0DTC2)
[7] = molecular target: SARS-CoV-2 Omicron BA.2 spike (S) protein (SARS-CoV-2) (UniProt P0DTC2)
[8] = molecular target: SARS-CoV-2 Victoria spike (S) protein (SARS-CoV-2) (UniProt P0DTC2)
[9] = molecular target: SARS-CoV-2 spike (S) protein, Omicron BA.1 (SARS-CoV-2) (UniProt P0DTC2)
[10] = molecular target: SARS-CoV-2 spike (S) protein, Omicron BA.1.1 (SARS-CoV-2) (UniProt P0DTC2)
[11] = molecular target: SARS-CoV-2 spike (S) protein, Omicron BA.2 (SARS-CoV-2) (UniProt P0DTC2)
[12] = molecular target: SARS-CoV-2 spike (S) protein, Omicron BA.3 (SARS-CoV-2) (UniProt P0DTC2)
[13] = molecular target: SARS-CoV-2 spike (S) protein, Omicron BA.4.6 (SARS-CoV-2) (UniProt P0DTC2)
[14] = molecular target: SARS-CoV-2 spike (S) protein, Omicron BA.4/5 (SARS-CoV-2) (UniProt P0DTC2)
[15] = molecular target: SARS-CoV-2 spike (S) protein, Victoria strain (SARS-CoV-2) (UniProt P0DTC2)
[16] = molecular target: SARS-CoV-2 spike (S) protein, Omicron BA.2 (SARS-CoV-2) (UniProt P0DTC2); remark: listed apart in the source
[17] = molecular target: SARS-CoV-2 spike (S) protein, Omicron BA.2.75 (SARS-CoV-2) (UniProt P0DTC2)
[18] = molecular target: SARS-CoV-2 spike (S) protein, Omicron BA.2 (SARS-CoV-2) (UniProt P0DTC2); remark: listed apart in the source
[19] = molecular target: SARS-CoV-2 spike (S) protein, Omicron BA.2.3.20 (SARS-CoV-2) (UniProt P0DTC2)
[20] = molecular target: SARS-CoV-2 spike (S) protein, Omicron BA.2.75 (SARS-CoV-2) (UniProt P0DTC2); remark: listed apart in the source
[21] = molecular target: SARS-CoV-2 spike (S) protein, Omicron BA.2.75.2 (SARS-CoV-2) (UniProt P0DTC2)
[22] = molecular target: SARS-CoV-2 spike (S) protein, Omicron BA.4.6 (SARS-CoV-2) (UniProt P0DTC2); remark: listed apart in the source
[23] = molecular target: SARS-CoV-2 spike (S) protein, Omicron BA.4/5 (SARS-CoV-2) (UniProt P0DTC2); remark: listed apart in the source
[24] = molecular target: SARS-CoV-2 spike (S) protein, Omicron BJ.1 (SARS-CoV-2) (UniProt P0DTC2)
[25] = molecular target: SARS-CoV-2 spike (S) protein, Victoria strain (SARS-CoV-2) (UniProt P0DTC2); remark: listed apart in the source
[26] = molecular target: SARS-CoV-2 Alpha (B.1.1.7) spike (S) protein (SARS-CoV-2) (UniProt P0DTC2)
[27] = molecular target: SARS-CoV-2 Beta (B.1.351) spike (S) protein (SARS-CoV-2) (UniProt P0DTC2)
[28] = molecular target: SARS-CoV-2 Gamma (P.1) spike (S) protein (SARS-CoV-2) (UniProt P0DTC2)
[29] = molecular target: SARS-CoV-2 Omicron (BA.1) spike (S) protein, live virus isolate (SARS-CoV-2) (UniProt P0DTC2)
[30] = molecular target: SARS-CoV-2 Omicron BA.1 spike (S) protein of the pseudovirus (SARS-CoV-2) (UniProt P0DTC2)
[31] = molecular target: SARS-CoV-2 Omicron BA.1 spike (S) protein, pseudovirus construct (SARS-CoV-2) (UniProt P0DTC2)
[32] = molecular target: SARS-CoV-2 Omicron BA.1.1 spike (S) protein, pseudovirus construct (SARS-CoV-2) (UniProt P0DTC2)
[33] = molecular target: SARS-CoV-2 Omicron BA.2 spike (S) protein, pseudovirus construct (SARS-CoV-2) (UniProt P0DTC2)
[34] = molecular target: SARS-CoV-2 Omicron BA.3 spike (S) protein (SARS-CoV-2) (UniProt P0DTC2)
[35] = molecular target: SARS-CoV-2 Omicron BA.3 spike (S) protein, pseudovirus construct (SARS-CoV-2) (UniProt P0DTC2)
[36] = molecular target: SARS-CoV-2 Omicron BA.4/5 spike (S) protein (SARS-CoV-2) (UniProt P0DTC2)
[37] = molecular target: SARS-CoV-2 spike (S) protein, Omicron BA.2.75 (SARS-CoV-2) (UniProt P0DTC2); remark: listed apart in the source
[38] = molecular target: SARS-CoV-2 spike (S) protein, Omicron BA.2 (SARS-CoV-2) (UniProt P0DTC2); remark: listed apart in the source
[39] = molecular target: SARS-CoV-2 spike (S) protein, Omicron BA.2.75 (SARS-CoV-2) (UniProt P0DTC2); remark: listed apart in the source

AZD8895 (antibody), sequence (VH): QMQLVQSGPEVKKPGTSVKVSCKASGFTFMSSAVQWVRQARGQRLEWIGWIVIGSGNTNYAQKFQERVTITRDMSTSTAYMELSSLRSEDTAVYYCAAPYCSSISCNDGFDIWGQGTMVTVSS
AZD8895 (antibody), sequence (VL): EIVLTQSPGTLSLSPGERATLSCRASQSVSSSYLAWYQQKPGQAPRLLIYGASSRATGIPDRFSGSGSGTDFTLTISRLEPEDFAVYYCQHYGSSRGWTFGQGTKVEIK
Omi-32 (antibody), sequence (VH): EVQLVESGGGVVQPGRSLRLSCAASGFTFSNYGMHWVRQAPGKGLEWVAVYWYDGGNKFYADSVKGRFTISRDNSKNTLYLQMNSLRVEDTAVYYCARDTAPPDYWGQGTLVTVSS
Omi-32 (antibody), sequence (VL): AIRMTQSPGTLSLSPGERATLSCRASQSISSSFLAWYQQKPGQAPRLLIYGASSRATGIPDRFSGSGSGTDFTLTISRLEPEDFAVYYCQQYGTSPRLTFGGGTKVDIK

AZD8895 (antibody)
IC50, authentic virus neutralization [1]: 0.011 µg/mL | IC50, authentic virus neutralization [2]: 0.046 µg/mL | IC50, authentic virus neutralization [3]: 0.003 µg/mL | IC50, authentic virus neutralization [4]: 0.046 µg/mL | IC50, authentic virus neutralization [5]: 1.15 µg/mL | IC50, authentic virus neutralization [6]: 6.08 µg/mL | IC50, authentic virus neutralization [7]: 7.7 µg/mL | IC50, authentic virus neutralization [8]: 0.005 µg/mL | IC50, pseudoviral neutralization [9]: 0.246 µg/mL | pseudovirus neutralisation IC50 [9]: 0.246 µg/mL | IC50, pseudoviral neutralization [10]: 0.1 µg/mL | pseudovirus neutralisation IC50 [10]: 0.1 µg/mL | IC50, pseudoviral neutralization [11]: 1.33 µg/mL | pseudovirus neutralisation IC50 [11]: 1.33 µg/mL | IC50, pseudoviral neutralization [12]: > 10 µg/mL | pseudovirus neutralisation IC50 [12]: > 10 µg/mL | IC50, pseudoviral neutralization [13]: > 10 µg/mL | IC50, pseudoviral neutralization [14]: > 10 µg/mL | pseudovirus neutralisation IC50 [14]: > 10 µg/mL | IC50, pseudoviral neutralization [15]: 0.001 µg/mL | pseudovirus neutralisation IC50 [15]: 0.001 µg/mL | pseudovirus neutralisation IC50 [16]: 1.99 µg/mL | pseudovirus neutralisation IC50 [17]: 0.008 µg/mL | IC50, pseudoviral neutralization [18]: 1.33 µg/mL | IC50, pseudoviral neutralization [19]: 0.007 µg/mL | IC50, pseudoviral neutralization [20]: 0.008 µg/mL | IC50, pseudoviral neutralization [21]: > 10 µg/mL | IC50, pseudoviral neutralization [22]: > 10 µg/mL | IC50, pseudoviral neutralization [23]: > 10 µg/mL | IC50, pseudoviral neutralization [24]: 0.114 µg/mL | IC50, pseudoviral neutralization [25]: 0.001 µg/mL

Omi-32 (antibody)
Authentic virus-IC50 [26]: 0.102 µg/mL | IC50, authentic virus neutralization [1]: 0.102 µg/mL | Authentic virus-IC50 [27]: 0.46 µg/mL | IC50, authentic virus neutralization [2]: 0.46 µg/mL | Authentic virus-IC50 [3]: 0.012 µg/mL | IC50, authentic virus neutralization [3]: 0.012 µg/mL | Authentic virus-IC50 [28]: 0.43 µg/mL | IC50, authentic virus neutralization [4]: 0.43 µg/mL | Authentic virus-IC50 [29]: 0.024 µg/mL | IC50, authentic virus neutralization [5]: 0.024 µg/mL | IC50, pseudovirus neutralization [30]: 0.017 µg/mL | Pseudovirus - IC50 [31]: 0.017 µg/mL | IC50, authentic virus neutralization [6]: 4.64 µg/mL | IC50, pseudovirus neutralization [6]: > 10 µg/mL | Pseudovirus - IC50 [32]: > 10 µg/mL | IC50, authentic virus neutralization [7]: 1.9 µg/mL | IC50, pseudovirus neutralization [7]: 2.68 µg/mL | Pseudovirus - IC50 [33]: 2.68 µg/mL | IC50, pseudovirus neutralization [34]: 1.02 µg/mL | Pseudovirus - IC50 [35]: 1.02 µg/mL | IC50, pseudovirus neutralization [36]: 0.035 µg/mL | Authentic virus-IC50 [8]: 0.032 µg/mL | IC50, authentic virus neutralization [8]: 0.032 µg/mL | IC50, pseudovirus neutralization [8]: 0.01 µg/mL | Pseudovirus - IC50 [8]: 0.01 µg/mL | pseudovirus neutralisation IC50 [9]: 0.017 µg/mL | pseudovirus neutralisation IC50 [10]: > 10 µg/mL | pseudovirus neutralisation IC50 [11]: 2.68 µg/mL | pseudovirus neutralisation IC50 [37]: 0.354 µg/mL | pseudovirus neutralisation IC50 [12]: 1.02 µg/mL | pseudovirus neutralisation IC50 [14]: 0.035 µg/mL | pseudovirus neutralisation IC50 [15]: 0.01 µg/mL | pseudovirus neutralisation IC50 [38]: 2.61 µg/mL | pseudovirus neutralisation IC50 [39]: 0.354 µg/mL | IC50, pseudoviral neutralization [18]: 2.68 µg/mL | IC50, pseudoviral neutralization [19]: > 10 µg/mL | IC50, pseudoviral neutralization [20]: 0.354 µg/mL | IC50, pseudoviral neutralization [21]: > 10 µg/mL | IC50, pseudoviral neutralization [22]: > 10 µg/mL | IC50, pseudoviral neutralization [23]: 0.035 µg/mL | IC50, pseudoviral neutralization [24]: > 10 µg/mL | IC50, pseudoviral neutralization [25]: 0.01 µg/mL

— patent US20250154231A1
